The values below come from patent US20110010786A1 (published 2011).

Bounds are passed on as bounds.

The target of this test is T1, human factor VIII (human, UniProt P00451 20-2351).
T1 construct: also called FVIII
The test is described as follows: Surface Plasmon Resonance.

T1 sequence (P00451 20-2351 limits assumed): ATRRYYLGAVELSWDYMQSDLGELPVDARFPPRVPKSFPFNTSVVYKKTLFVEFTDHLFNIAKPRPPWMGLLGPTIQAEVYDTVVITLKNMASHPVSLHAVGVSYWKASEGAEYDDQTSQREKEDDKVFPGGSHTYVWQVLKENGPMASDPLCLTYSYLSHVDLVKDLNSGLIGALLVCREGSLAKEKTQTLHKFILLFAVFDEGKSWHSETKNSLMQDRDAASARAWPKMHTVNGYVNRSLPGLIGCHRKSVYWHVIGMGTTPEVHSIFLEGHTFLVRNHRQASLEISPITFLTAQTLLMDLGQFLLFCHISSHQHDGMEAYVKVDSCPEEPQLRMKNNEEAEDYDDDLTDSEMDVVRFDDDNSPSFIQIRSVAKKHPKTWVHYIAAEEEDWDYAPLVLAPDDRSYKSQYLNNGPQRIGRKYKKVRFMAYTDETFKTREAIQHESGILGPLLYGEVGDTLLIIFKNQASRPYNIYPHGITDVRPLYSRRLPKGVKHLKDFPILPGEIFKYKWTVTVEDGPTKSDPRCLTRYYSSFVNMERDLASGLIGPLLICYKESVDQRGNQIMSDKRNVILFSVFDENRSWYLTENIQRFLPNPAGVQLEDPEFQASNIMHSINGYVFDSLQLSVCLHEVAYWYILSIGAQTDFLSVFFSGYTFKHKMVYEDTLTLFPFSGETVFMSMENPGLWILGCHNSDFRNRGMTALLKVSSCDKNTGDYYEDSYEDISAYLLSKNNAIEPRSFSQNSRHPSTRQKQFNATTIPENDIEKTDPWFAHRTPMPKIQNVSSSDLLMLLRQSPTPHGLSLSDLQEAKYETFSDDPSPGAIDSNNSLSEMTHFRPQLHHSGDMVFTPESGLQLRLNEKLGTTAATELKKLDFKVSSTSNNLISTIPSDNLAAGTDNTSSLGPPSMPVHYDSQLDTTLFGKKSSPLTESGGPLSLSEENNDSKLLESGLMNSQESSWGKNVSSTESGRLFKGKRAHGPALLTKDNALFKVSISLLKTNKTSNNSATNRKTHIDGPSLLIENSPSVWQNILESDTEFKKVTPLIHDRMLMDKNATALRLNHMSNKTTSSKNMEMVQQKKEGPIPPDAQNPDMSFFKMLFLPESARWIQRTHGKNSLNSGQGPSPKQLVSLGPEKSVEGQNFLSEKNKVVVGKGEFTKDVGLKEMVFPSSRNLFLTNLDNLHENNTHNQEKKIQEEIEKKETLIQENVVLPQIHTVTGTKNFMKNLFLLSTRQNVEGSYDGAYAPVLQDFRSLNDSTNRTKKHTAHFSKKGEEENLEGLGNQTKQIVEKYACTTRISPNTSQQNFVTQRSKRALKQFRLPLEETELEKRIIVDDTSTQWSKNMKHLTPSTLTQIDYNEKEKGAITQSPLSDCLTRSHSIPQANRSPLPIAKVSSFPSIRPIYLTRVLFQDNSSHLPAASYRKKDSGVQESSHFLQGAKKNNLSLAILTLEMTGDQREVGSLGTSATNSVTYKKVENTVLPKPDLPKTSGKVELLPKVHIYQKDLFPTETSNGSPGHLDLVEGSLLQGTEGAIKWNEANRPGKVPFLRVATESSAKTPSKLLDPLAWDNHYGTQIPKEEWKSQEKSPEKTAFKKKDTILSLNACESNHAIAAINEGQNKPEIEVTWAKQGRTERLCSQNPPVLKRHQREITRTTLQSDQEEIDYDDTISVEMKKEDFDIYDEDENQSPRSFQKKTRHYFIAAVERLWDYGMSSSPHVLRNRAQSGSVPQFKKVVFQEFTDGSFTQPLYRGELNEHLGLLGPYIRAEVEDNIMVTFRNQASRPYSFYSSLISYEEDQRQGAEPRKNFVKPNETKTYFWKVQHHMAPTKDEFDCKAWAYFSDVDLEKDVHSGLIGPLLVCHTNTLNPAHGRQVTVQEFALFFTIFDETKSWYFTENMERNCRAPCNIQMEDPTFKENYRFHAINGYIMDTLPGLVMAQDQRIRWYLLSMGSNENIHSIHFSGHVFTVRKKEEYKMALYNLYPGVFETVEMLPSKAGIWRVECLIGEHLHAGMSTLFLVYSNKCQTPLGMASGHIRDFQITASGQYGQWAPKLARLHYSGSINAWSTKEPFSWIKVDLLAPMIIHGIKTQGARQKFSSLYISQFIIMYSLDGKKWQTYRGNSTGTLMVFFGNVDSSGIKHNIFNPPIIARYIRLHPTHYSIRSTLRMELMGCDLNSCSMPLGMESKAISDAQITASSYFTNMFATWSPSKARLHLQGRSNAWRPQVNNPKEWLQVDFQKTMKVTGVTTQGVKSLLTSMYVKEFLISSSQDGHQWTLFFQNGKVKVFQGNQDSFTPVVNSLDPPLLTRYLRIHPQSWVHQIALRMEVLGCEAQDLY

B1: human monoclonal antibody BO2C11 (antibody, V domains shown)
VH: QVQLVQSGAEVKKPGASVKVSCKVSGYTLTELPVHWVRQAPGKGLEWVGSFDPESGESIYAREFQGSVTMTADTSTDIAYMELSSLRSDDTAVYYCAVPDPDAFDIWGQGTMVTVSS
VL: EIALTQSPGTLSLSPGERATLSCRASQSFSSSYLAWYQQKPGQAPRLLIYGASTRATGIPDRFSGSGSGTDFTLTISRLEPEDFAVYYCQKYGTSAITFGQGTRLEIK
notes: also called B02C11
In the case of B1, the koff is at most 1e-05 s⁻¹.
